The record followed here is the DeepSol protein solubility set.

This data set in a line: soluble on expression in E. coli; label from the status in PepcDB or PDB records.
In the case of “MGSSHHHHHHSSGLVPRGSPTVTPTVNRENKPTCYPKAEISRLSASQIRNLNPVFGGSGPALTGLRNLGNTCYMNSILQCLCNAPHLADYFNRNCYQDDINRSNLLGHKGEVAEEFGIIMKALWTGQYRYISPKDFKITIGKINDQFAGYSQQDSQELLLFLMDGLHEDLNKADNRKRYKEENNDHLDDFKAAEHAWQKHKQLNESIIVALFQGQFKSTVQCLTCHKKSRTFEAFMYLSLPLASTSKCTLQDCLRLFSKEEKLTDNNRFYCSHCRARRDSLKKIEIWKLPPVLLVHLKRFSYDGRWKQKLQTSVDFPLENLDLSQYVIGPKNNLKKYNLFSVSNHYGGLDGGHYTAYCKNAARQRWFKFDDHEVSDISVSSVKSSAAYILFYTSLG”, the “soluble on expression in E. coli” value is recorded as “soluble”. On to “MGSSHHHHHHSSGRENLYFQGHMQWETVIGLEIHAQLATQSKIFSGSSTAFGAAPNTQASLVDLAMPGTLPVLNEEAVRMACLFGLAIDARIDRQNVFARKNYFYPDLPKGYQTSQMDHPIVGKGHLDITLEDGTTKRIGITRAHLEEDAGKSLHEDFQGMSGIDLNRAGTPLLEIVSEPDIRSAKEAVAYVKAIHALVRYLGICDGNMAEGSLRCDCNVSVRPKGQAEFGTRAEIKNVNSFRFIEKAINHEIQRQIELIEDGGKVVQETRLYDPNKDETRSMRGKEEANDYRYFPCPDLLPVVIEPEYLAKLREQLPELPVQKRERFESQYGLSAYDASVLSASREMADYFEKVQGICGDAKLAANWVMVELGSLLNKDGLEIEQSPVSAEQLGGMILRIKDNTISGKLAKMVFEAMANGEGSADQIIEAKGLKQVTDSGAIEKMLDEVLAANAEQVEQYRAADEAKRGKMFGFFVGQAMKASKGKANPQQVNELLKKKLEA”, for which the “soluble on expression in E. coli” value is reported as “soluble”.

With “MGSTRWDAVNKFSVENWYPHLRKHTFKSHFITLNYNDIHYLMGNIPPDYDSSKLESIFNKILSEFNNKEVFMRLSTRSPKDSKFLFEEASTIMSKDFVYWNENDNKHQQLVSFVASMLKAMKIKSGRKIIETIAQSPRVYNDLLALVSSSNQSDCTTNVILREWHDIRPDHEFRVFVSRRHRKESIVTAISQYFHFLYFDKSPADCFNFLDEEDKKAVIKKFENYVLKSVDPDVAKFLNFSSEQDDDESSDCIREYIVDLALIPVSQYHGEITDENIIEIGANTYVMVVIELNPFAPAATGSGLFNWKNDLMMLWGKASCDYPVFKYRTTPREDLQSVSLLPSNYESVIKSALIKRLETSYSNSASQKERFFSSTKPVTESSGSALLDMVTKPLEHHHHHH”, the “soluble on expression in E. coli” value is recorded as “soluble”.

With “MGTLLIDVDGTVVDSYPGIREAFIHSMTSVGIPVPEESWLRRIPGPPMVETMRALGQSDSVTAAALACFRQQYDQISWRNSQLFDGWHDALSEWRSQGIRLFTATSKNEHLARLTLEYLGVADLFDFIGGADPTVGRETKADVIAYVLATTETSEHSPILMVGDRSHDTEGAAAFGIPTMLVTWGYGNEQEWSHADYHARNMAEAKGIVRDFFN”, the “soluble on expression in E. coli” value is “not soluble”. “MGVFRTRFTETFGVEHPIMQGGMQWVGRAEMAAAVANAGGLATLSALTQPSPEALAAEIARCRELTDRPFGVNLTLLPTQKPVPYAEYRAAIIEAGIRVVETAGNDPGEHIAEFRRHGVKVIHKCTAVRHALKAERLGVDAVSIDGFECAGHPGEDDIPGLVLLPAAANRLRVPIIASGGFADGRGLVAALALGADAINMGTRFLATRECPIHPAVKAAIRAADERSTDLIMRSLRNTARVARNAISQEVLAIEARGGAGYADIAALVSGQRGRQVYQQGDTDLGIWSAGMVQGLIDDEPACAELLRDIVEQARQLVRQRLEGMLAGV”: the “soluble on expression in E. coli” value is “soluble”.

As for “MGWCVMAVLVDSETRVLVQGITGREGSFHAKAMLEYGTKVVAGVTPGKGGSEVHGVPVYDSVKEALAEHPEINTSIVFVPAPFAPDAVYEAVDAGIRLVVVITEGIPVHDTMRFVNYARQKGATIIGPNCPGAITPGQAKVGIMPGHIFKEGGVAVVSRSGTLTYEISYMLTRQGIGQSTVIGIGGDPIVGLSFTEALKLFQEDPQTEALVLIGEIGGDMEERAAEMIKKGEFTKPVIAYIAGRTAPPEKRMGHAGAIIMMGTGTYEGKVKALREAGVEVAETPFEVPELVRKALRR”, the “soluble on expression in E. coli” value is “soluble”.

For “MGYESMLADIKSSLNGKISDVEDKIEKLKKAKKDIDTLQEEAITEIKEIVKPELGKHWTGTKADDFDKGREEAKSEASKIVNDKYNEYMASINGKIFDLEWDKAKYASELFIANGAADLLKKGEEFAEEVGNTISKLKWWLEHHHHHH”, the “soluble on expression in E. coli” value was “soluble”. “MGYLNNVTGYREDLLANRAIVKHGNFALLTPDGLVKNIIPGFENCDATILSTPKLGASFVDYLVTLHQNGGNQQGFGGEGIETFLYVISGNITAKAEGKTFALSEGGYLYCPPGSLMTFVNAQAEDSQIFLYKRRYVPVEGYAPWLVSGNASELERIHYEGMDDVILLDFLPKELGFDMNMHILSFAPGASHGYIETHVQEHGAYILSGQGVYNLDNNWIPVKKGDYIFMGAYSLQAGYGVGRGEAFSYIYSKDCNRDVEILEHHHHHH”: the “soluble on expression in E. coli” value is on record as “not soluble”. Turning to “MGYNETIYHKPFIKINMPDVLGKPDATQIPDDVWLDILINYLQPQDIVNLSEINNRLSRLFKTQHTQSEQLNQKKTLGILKVFAGYSSTFLFARLNGKQRLFKTRNWSAADSDNINPILMPISLPENISVIESIQSTYKHTVVVGRDKHDQIIVATNKINQDYAKQETSHNQLIPLPLRDINISLVSAGNEEDYILNPIFSFPATQQGNCILNCIK”, the “soluble on expression in E. coli” value is “not soluble”.

Take “MGYRIEMATRNPFDIDHKSKYLREAALEANLSHPETTPTMLTCPIDSGFLKDPVITPEGFVYNKSSILKWLETKKEDPQSRKPLTAKDLQPFPELLIIVNRFVETQTNYEKLKNRLVQNARVAARQKEYTEIPDIFLCPISKTLIKTPVITAQGKVYDQEALSNFLIATGNKDETGKKLSIDDVVVFDELYQQIKVYNFYRKREMQKNQIQPSVSSGFGFFSLNFLTSWLWGTEEKKEKTSSDMTY”: the “soluble on expression in E. coli” value is reported as “not soluble”.

Take “MGYRNLPPHLNPLAPLALDDPPGWLTSFKLRRLTADQCASLLAEANRRRLIASRPVADSEGSCPLRNVVRVANFGSVQLSSSFLASCPLALSSALYIEQQAKPLTRQLMASDLRQIDHLGSFACRNIYHRQQARRSEHATADALDVSGFRLADGRRVSVLQGWRSETSRPWLAALLSSSCHYFGNALGPEYNAAHANHFHFGMRGQGFCFLEHHHHHH”: the “soluble on expression in E. coli” value is listed as “not soluble”. As for “MHCLSDFIPWNQVSVTGDFVGHIQELIRTEVLPYQWEALNDQIAGAEPSHCLDNFRAAAEKKGHIQFHGQPFQDSDIYKWIEAAAYTLAWHPDSDLEAKADQAIELICGAQQPDGYLNTYFILTGAQRWTHLLDGHELYCAGHLMEAAVAYYHATGKDKLLKAAQKLADHIADVFGTSPGKIPGYPGHPEVELALIRLFEATGNIKYQQLAQYFICQRGASPSIFRKEADQFGWDWADSPFQFQFYQAGKPILEQTELEGHAVRALYLCCGIADVAARTQDAALLETCRRLWEDLTQTKLYITGGAGSSVYGEAFTFAYDLPNDTAYAETCAAVAVCFFAQRMMKISPSGAYGDVLEQALYNGVLSGMALDGKSFFYVNPLEVVPEACQKDQRKKHVKPIRQKWFACACCPPNLARLFASIGGYLHFIRAETLYTNLYVTSTSEFTFQGLPIKLHMDSAYPFDEKIHISLSLPRPMEFSYAVRIPAWCADYHVLINGKICAGTLKDGFLYLHRCWRDGDEVELTLSMPVRVVRANSLVRENIGKSAICRGPIVYCMEQTDNGPQLHRNRICGKPSFTISSGEENLKGLPCISCSGEYLLPDGTQLYTSAKESFQPKTLRFIPYFAWCNRSPGEMAVWVRHDTILEHHHHHH”, the “soluble on expression in E. coli” value is listed as “soluble”. In the case of “MHHHHHHGSKFKGSTFGRLVRIEFDILRLGELKIDDLSEFDTSEIKLEIKATSSGIKLVGVWEGDIEKVGEAIKKALEESIKLRERILRKMKSKVERIRKALLEMGFREEQFGYGEAVKFVKKVGDFEIAIIVSSREDIVRVEVYGEGNRKIIAPELEAFFESVDIEEIEVYDIEEEGREEKVVINLELPKSDEKPEKRITEAVKILENILMA” it was “soluble”; in that of “MHHHHHHIEGRHMLRPGDCEVCISYLGRFYQDLKDRDVTFSPATIEEELIKFCREARGKENRLCYYIGATDDAATKIINEVSKPLAHHIPVEKICEKLKKKDSQICELKYDKQIDLSTVDLKKLRVKELKKILDDWGEMCKGCAEKSDYIRKINELMPKYAPKAASARTDL”, “soluble”.

As to “MHHHHHHMELSLASITVPLESIKPSNILPVTVYDQHGFRILFHFARDPLPGRSDVLVVVVSMLSTAPQPIRNIVFQSAVPKVMKVKLQPPSGTELPAFNPIVHPSAITQVLLLANPQKEKVRLRYKLTFTMGDQTYNEMGDVDQFPPPETWGSL”, the “soluble on expression in E. coli” value was “soluble”. In the case of “MHHHHHHMKNVIFEDEEKSKMLARLLKSSHPEDLRAANKLIKEMVQEDQKRMEKISKRVNAIEEVNNNVKLLTEMVMSHSQGGAAAGSSEDLMKELYQRCERMRPTLFRLASDTEDNDEALAEILQANDNLTQVINLYKQLVRGEEVNGDATAGSIPG” it was “soluble”; in that of “MHHHHHHMNSRILSTGSYLPSHIRTNADLEKMVDTSDEWIVTRSGIRERRIAAEDETVATMGFEAAKNAIEAAQINPQDIELIIVATTSHSHAYPSAACQVQGLLNIDDAISFDLAAACTGFVYALSVADQFIRAGKVKKALVIGSDLNSRKLDETDRSTVVLFGDGAGAVILEASEQEGIISTHLHASADKNNALVLAQPERGIEKSGYIEMQGNETFKLAVRELSNVVEETLLANNLDKKDLDWLVPHQANLRIITATAKKLEMDMSQVVVTLDKYANNSAATVPVALDEAIRDGRIQRGQLLLLEAFGGGWTWGSALVRF”, “soluble”. For “MHHHHHHSSGVDLGTENLYFQSMASESETLNPSARIMTFYPTMEEFRNFSRYIAYIESQGAHRAGLAKVVPPKEWKPRASYDDIDDLVIPAPIQQLVTGQSGLFTQYNIQKKAMTVREFRKIANSDKYCTPRYSEFEELERKYWKNLTFNPPIYGADVNGTLYEKHVDEWNIGRLRTILDLVEKESGITIEGVNTPYLYFGMWKTSFAWHTEDMDLYSINYLHFGEPKSWYSVPPEHGKRLERLAKGFFPGSAQSCEAFLRHKMTLISPLMLKKYGIPFDKVTQEAGEFMITFPYGYHAGFNHGFNCAESTNFATRRWIEYGKQAVLCSCRKDMVKISMDVFVRKFQPERYKLWKAGKDNTVIDHTLPTPEAAEFLKESEL”, the “soluble on expression in E. coli” value is listed as “soluble”.

With “MHHHHHHSSGVDLGTENLYFQSMGQCSVLLFPGQGSQVVGMGRGLLNYPRVRELYAAARRVLGYDLLELSLHGPQETLDRTVHCQPAIFVASLAAVEKLHHLQPSVIENCVAAAGFSVGEFAALVFAGAMEFAEGLYAVKIRAEAMQEASEAVPSGMLSVLGQPQSKFNFACLEAREHCKSLGIENPVCEVSNYLFPDCRVISGHQEALRFLQKNSSKFHFRRTRMLPVSGAFHTRLMEPAVEPLTQALKAVDIKKPLVSVYSNVHGHRYRHPGHIHKLLAQQLVSPVKWEQTMHAIYERKKGRGFPQTFEVGPGRQLGAILKSCNMQAWKSYSAVDVL”, the “soluble on expression in E. coli” value is recorded as “soluble”.

For “MHHHHHHSSGVDLGTENLYFQSMPRARPGGNRVTVVLGAQWGDEGKGKVVDLLAQDADIVCRCQGGNNAGHTVVVDSVEYDFHLLPSGIINPNVTAFIGNGVVIHLPGLFEEAEKNVQKGKGLEGWEKRLIISDRAHIVFDFHQAADGIQEQQRQEQAGKNLGTTKKGIGPVYSSKAARSGLRMCDLVSDFDGFSERFKVLANQYKSIYPTLEIDIEGELQKLKGYMEKIKPMVRDGVYFLYEALHGPPKKILVEGANAALLDIDFGTYPFVTSSNCTVGGVCTGLGMPPQNVGEVYGVVKAYTTRVGIGAFPTEQDNEIGELLQTRGREFGVTTGRKRRCGWLDLVLLKYAHMINGFTALALTKLDILDMFTEIKVGVAYKLDGEIIPHIPANQEVLNKVEVQYKTLPGWNTDISNARAFKELPVNAQNYVRFIEDELQIPVKWIGVGKSRESMIQLF”, the “soluble on expression in E. coli” value is “soluble”.
